Measured values as given in the supplement of paper PMC9170038.

Test system: MS2 coat protein
Test: apparent KD of MS2 coat protein; designed switch direction (-1 OFF switch, 1 ON switch): -1; higher = weaker reporter binding
In short: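 Designed RNA switches with common flanks were made on Illumina chips by stalled E. coli RNA polymerase. Titration with SNAP-549-labelled MS2 coat protein doubled from 0.7 or 1.5 nM up to 3 µM. Apparent KD is each design's median over clusters after curve-fitting normalised fluorescence.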

[1] = input ligand: microRNA oligo, concentration not stated
[2] = Eterna round: R95, input ligand: microRNA oligo, concentration not stated
[3] = Eterna round: R95, input ligand: FMN 200 uM
[4] = Eterna round: R95, input ligand: none

Sequence | apparent KD of MS2 coat protein (input ligand: FMN 200 uM) | apparent KD of MS2 coat protein (input ligand: none) | apparent KD of MS2 coat protein [1] | apparent KD of MS2 coat protein [2] | apparent KD of MS2 coat protein [3] | apparent KD of MS2 coat protein [4]
CCGAACAUAGGAUAUACAUGAGGAUCACCCAUGUAUAUAAAAGGGUGUUCCAACUAAAGUAGAAGGAUGUAAGG [ExFusion 1 - Jieux - Exclusion 3] (Eterna round: R97, puzzle: Exclusion 3) | 36.5 nM | 40.6 nM |  |  |  | 
AGUACUAUCACGAAAGUGAUAGUACAAAUAGCAAGUGAAACAUGAGGAUCACCCAUGUCCUCAUUUGCUCGUCUUAA [Mat - Sensor v2 -ver2- JL mod - D66] (Eterna round: R96, puzzle: Sensor v2, turn-off variant 2) | 12.6 nM | 14.3 nM | 320 nM |  |  | 
UGUCUGUCAGGAUAUCCAGAAGAGAAGAAAGUAAGAUGAGUGGAGAAGGGACAUGAGGAUCACCCAUGUAAUUA [My frist] (puzzle: Exclusion 4) |  |  |  | 29.7 nM |  | 
GUUUAGCAAGCGAGAUCCCACAUGAGGAUCACCCAUGUGCAUCCAGAAUUACUGGGUGCAAAAGCUCGUCUUAUAUG [mod-El /newdang-1] (Eterna round: R97, puzzle: Sensor, turn-off variant 1) | 71.8 nM | 71.8 nM |  |  |  | 
UUCUUGGCAGGAUAUGCUCUUUUAGACAUGAGGAUCACCCAUGUGUUUAUUCUUUUUUUUGCAGAAGGGCCUUAAU [JR_E5_Sub044] (puzzle: Exclusion 5) |  |  |  | 87.9 nM |  | 
CCGGAAGUAGAGGAUAUAGGAGUCGAUAGACUCCUAGAAGGCUAUACAUGAGGAUCACCCAUGUGUCCUACCGG [Fiskers Ex 6 - 68] (puzzle: Exclusion 6) |  |  |  | 19.1 nM |  | 
CGCUGGACAGGAUAUGUUUUUGGGCACUUGAGGAUCACCCAAGUCAUCAAGAAAACAGGCACAGAAGGGUUUAUGG [salish99_ex5_r4_022(!)] (Eterna round: R97, puzzle: Exclusion 5) | 28 nM | 25.1 nM |  |  |  | 
GGACCUGGAGGAUAUAGAGCACUGAACAUGAGGAUCACCCAUGUGACCGGUGUAGUGCACCUAGAAGGCCGCGGCA [Eternabot (L1) Solution 40] (Eterna round: R97, puzzle: Exclusion 5) | 129 nM | 65.4 nM |  |  |  | 
UUUUAGUCAGGAUAUACAUUUUUUUAAUUAUUUAUAAUAUUACAUGAGGAUCACCCAUGUAGAAGGGACAUUUU [My Design] (puzzle: Exclusion 2) |  |  |  | 28.6 nM |  | 
CCGUCACAUGAGGAUCACCCAUGUCAGGAUAUCUCAGUGCAUCCACACGGACGCAUCAAGAGAAGGGACAAAAC [Vinxlusion 6 - Jieux - Exclusion 1] (Eterna round: R97, puzzle: Exclusion 1) | 47.9 nM | 34.8 nM |  |  |  | 
AAGAAACAUGAGGAUCACCCAUGUCAGGAUAUCCGAAAAGAAAAGAAAAGAAAAGAAAGGAGAAGGGACAAAAG [Default title] (puzzle: Exclusion 1) |  |  |  | 26.6 nM | 40.7 nM | 76 nM
AGGUAACAUGAGGAUCACCCAUGUCAGGAUAUCAGUAAGAUUAGAAUAGAGUAGAGUAUGAGAAGGGACUAUAU [Excluse me! 20 - Jieux - Exclusion 1] (puzzle: Exclusion 1) |  |  |  | 37.3 nM | 33.3 nM | 50 nM
UAAUAAUAGCAAGGAUAUAGUUAUUAUAAUAUACUAGAAGGUGCACAUGAGGAUCACCCAUGUUUUAUAAUUUGUAAUUUAAAU [3rd something] (Eterna round: R96, puzzle: Exclusion NG 1) |  |  | 20.9 nM |  |  | 
GGGAACCGAGGAUAUCAGUACACGCACAUGAGGAUCACCCAUGUGCUCCUCGGUGCUGUCUGAGAAGGCGGUGAGA [Raonxe] (Eterna round: R97, puzzle: Exclusion 5) | 26.9 nM | 17.6 nM |  |  |  | 
UAUGGUUAAGUCAGGAUAUACAUACAGAAAUCUGAGUAGAAGGGACAUGAGGAUCACCCAUGUAUGGUAGUGUU [Ex4 #55] (Eterna round: R97, puzzle: Brourd's mod of Exclusion 4) | 141 nM | 96.2 nM |  |  |  | 
UUAAAUCAUGUAGGAUAUGCGUGGCGAAGCUAUGCAGAAGGACAUGAGGAUCACCCAUGUGCUGCGGUCUGCGUACAGAUCGCU [JL ENG1 1.03] (Eterna round: R96, puzzle: Exclusion NG 1) | 98.7 nM | 142 nM | 76.4 nM |  |  | 
UAAUACAUCUAUGGGAGUAACAUGAGGAUCACCCAUGUAUGUCUUGUUUUUUGUUCGUCAAAGACUUUCUGAUCAGU [JR_SV3TOV1_Sub030] (puzzle: Sensor v3, turn-off variant 1) |  |  |  | 191 nM | 76.7 nM | 83.2 nM

Sequence | apparent KD of MS2 coat protein (input ligand: FMN 200 uM) | apparent KD of MS2 coat protein (input ligand: none) | apparent KD of MS2 coat protein [1] | apparent KD of MS2 coat protein [2] | apparent KD of MS2 coat protein [3] | apparent KD of MS2 coat protein [4]
AAGAAACAUGAGGAUCACCCAUGUGAGGAUAUGUAAAAUAAAAUAAAAGAAAUAAUAAACAGAAGGCACAAAGG [Mat - Mod of Hog D16] (puzzle: Exclusion 1) |  |  |  | 29.8 nM | 47.2 nM | 41.8 nM
UCUUCACAUGAGGAUCACCCAUGUGAGGAUAUGGUUUCGCUGGCCGUAGCCAGUGGAACCAGAAGGCGCAUGAU [Mat - Exclusion 1 - JL Mod - D7] (Eterna round: R97, puzzle: Exclusion 1) | 21.5 nM | 26.1 nM |  |  |  | 
AAAAGGUCAGGAUAUACAAGAAAAGAAAAGAAAAGAAAAGAGUAGAAGGGACAUGAGGAUCACCCAUGUAAAAG [Default title] (puzzle: Exclusion 4) |  |  |  | 45.8 nM | 30.6 nM | 35.1 nM
CCUGCGGACAAAGGAUAUUGCGGUGGCCGGCUCGGCGUACCGAGCCUACAUGAGGAUCACCCAUGUAAGAAGGUUGUCGUUGGA [Mat - Exclusion NG 2 - Mod of JL - D71] (Eterna round: R96, puzzle: Exclusion NG 2) | 228 nM | 40.1 nM | 27 nM |  |  | 
UGAUUCCUAGGAUAUGCUGGAUAUGAGGUCCCGAGUUGCCGACAUGAGGAUCACCCAUGUAGAAGGAGGUGUCG [Eternabot (L1) Solution 66] (Eterna round: R97, puzzle: Exclusion 2) | 199 nM | 105 nM |  |  |  | 
AUCAUGUAAGGAUAUCUUAUAUGGAUCGAAAGAUCAAGUUAAGAGAAGGUACAUGAGGAUCACCCAUGUAUAAC [Ex4-3: 33] (puzzle: Exclusion 4) |  |  |  | 19.4 nM |  | 
UCGCUCCGUGUAGGAUAUCGCCGUACUAUUCGGCGAGAAGGACAUGAGGAUCACCCAUGUAUGUUAUUAUCACGCGUGGCGCAA [Design 59] (Eterna round: R96, puzzle: Exclusion NG 1) | 20.3 nM | 16.9 nM | 15.2 nM |  |  | 
UAUUAGCAAGCAGGAUCCCACAUGAGGAUCACCCAUGUGCUCGUCUUAUAAGGUACUGUGACGAAAGUCACGGUACC [Sensor 3, v1 - 90] (puzzle: Sensor v3, turn-off variant 1) |  |  |  | 186 nM | 81.3 nM | 90.9 nM
AGGAUACAUGAGGAUCACCCAUGUGAGGAUAUACGAUAGCUCAGGAAGAGAUUAGUAUGUAGAAGGUGCGGGUG [Eternabot (L1) Solution 49] (Eterna round: R97, puzzle: Exclusion 1) | 205 nM | 198 nM |  |  |  | 
GAGUCUCGAAAGGAUAUUUAGGUGUAUGCAGGUAGAGAAGGUUCGACAUGAGGAUCACCCAUGUAAUGGUUUCC [Eternabot (L2) Solution 25] (Eterna round: R97, puzzle: Exclusion 6) | 157 nM | 84 nM |  |  |  | 
AUAAAUCAUGUAGGAUAUGCGUGGAGAAACUAUGCAGAAGGACAUGAGGAUCACCCAUGUGCUUCCGUCUGCGUACAGAUGGUA [Mat - Exclusion NG 1 - Mod of JL - D9] (Eterna round: R96, puzzle: Exclusion NG 1) | 134 nM | 27.3 nM | 20.1 nM |  |  | 
CAUUAUUAUCGAGGAUAUCCUAUUGUAAUUCUGGGAGAAGGCGGACUCAACAUGAGGAUCACCCAUGUAAGACGGGUACUAGAU [Ex NG1 #21] (Eterna round: R96, puzzle: Exclusion NG 1) | 69.5 nM | 92 nM | 61 nM |  |  | 
GGGAAGAACCAACAAGCAAACAUGAGGAUCACCCAUGUAGUAGGAGGAAGAAAGGUGAUUUAGAAAGCUCGACUUAU [AK-miRNA-r3-6] (Eterna round: R97, puzzle: Sensor, turn-off variant 1) | 159 nM | 202 nM |  |  |  | 
GUGCACGUAGGAUAUUAGAAGGAGAACAUGAGGAUCACCCAUGUUAUCCAUCACCUCCGCUAAGAAGGAUGGCCAC [EX5 C.6] (Eterna round: R97, puzzle: Exclusion 5) | 14.1 nM | 13 nM |  |  |  | 
UCUCGACAUGAGGAUCACCCAUGUCAGGAUAUUGUAUUGGAGGUUUUUUACCUUAUGGCAAGAAGGGAUGUGUG [LRO-Excl1-24] (puzzle: Exclusion 1) |  |  |  | 18.3 nM |  | 
UAAUACAAGCAAAGAUCUUACAUGAGGAUCACCCAUGUGCUCGUCUUAUAAAGUACUAUCACGAAAGUGAUAGUACA [Mat - Sensor v3 - turn-off var 1 - Eli Mod - D93] (puzzle: Sensor v3, turn-off variant 1) |  |  |  | 181 nM | 20.4 nM | 31.9 nM
CUCCCACAUGAGGAUCACCCAUGUGAGGAUAUGGAGCGCGACCGCGCGGUCGCGUACACCAGAAGGCGCAUGAU [1st #81] (Eterna round: R97, puzzle: Exclusion 1) | 24.1 nM | 21.1 nM |  |  |  | 
